Experimental findings from US11629193B2, “EGFR binding molecules” (F-STAR BETA LIMITED, priority 2016, dated 2023) are described below.

In one series the test system is LL2.ova. Put plainly: In vivo skin toxicity and tumour growth, syngeneic mouse tumour model LL2.ova. The conditions noted are these: 250 μg intraperitoneally on days 3, 6 and 10; eight mice each. How it is done: Skin toxicity has been observed with known anti-EGFR therapies, resulting in skin rash, lesions etc. In order to determine the toxicity of anti-EGFR Fcabs and mAb^2 containing anti-EGFR Fcs, an in vivo study was conducted. […] The tumour cells (5×10^5 cells) were implanted subcutaneously in the flank of female C57B16 (Charles River) mice aged 6-8 weeks and the mice were randomly assigned to four cohorts of eight mice each. […] The tumour volumes were measured with electronic callipers at days 10, 12, 14, 17, 19, 20 and 21. At day 16 pictures of the mice were taken to illustrate the observed skin toxicity.

A further series concerns the target HGF (Homo sapiens, UniProt P14210). Put plainly: Free HGF in culture media of U87MG cells (HGF Human ELISA Kit). It counts as cell-based. To be noted: 30 nM, 4 days, compared to controls. More on the design: examined in U87MG cells that secrete HGF; endogenous in cells; host or cells: U87MG. How it is done: It was hypothesised that internalisation of HGF by anti-EGFR/HGF mAb^2 leads to reduced level of HGF in the system. To test this hypothesis, the change in level of free HGF caused by incubation with anti-EGFR/HGF mAb^2 was examined in U87MG cells that secrete HGF. U87MG cultures were incubated with different treatments at 30 nM for 4 days at 37° C. […] On day 4, the media from each cell culture were collected for HGF level analysis. HGF concentration was measured using HGF Human ELISA Kit (ThermoFisher, KAC2211) following the manufacturer's protocol. Using monoclonal anti-HGF antibodies, the free HGF in media was detected (free HGF was defined as HGF in the media which was bound by detection antibodies).
Background: In an ELISA, binding on a coated surface is turned into a signal by an enzyme label.

In series [1] the test system is phosphorylation of MAPK and Akt. Put plainly: Western blot of downstream signalling in U87MG cells. Type of series: cell-based, human. To be noted: 200 nM (200+200 nM for combination), HGF and EGF present. How it is done:
(§1) Overnight cultures of the glioblastoma cell line U87MG (ATCC HTB-14) were moved from a medium with 10% FBS to a low serum medium with 0.1% FBS to optimise sensitivity to ligand stimulation. The cells were incubated overnight. […] Controls without antibody treatment were included, with and without growth factor stimulation. The treated cells were lysed using lysis buffer (10 mM Tris® pH7.5, 150 mM NaCl, 1 mM EDTA) comprising 1:100 protease inhibitor cocktail (Calbiochem, 539131) and 1:100 Phosphatase inhibitor cocktail (Calbiochem, 524625) and the lysates collected for analysis.
(§2) Lysate samples were subjected to standard western blotting analysis using a 4-12% Bis-Tris® protein gel (ThermoFisher, NP0322BOX) and transferred to a nitrocellulose membrane (ThermoFisher, IB301001). The membrane was blocked with 5% Marvel milk/TBST and then probed for phospho-c-Met using a rabbit monoclonal antibody specific for c-Met phosphorylated at Tyr1234/1235 (Cell Signaling, 3077), phospho-EGFR using a mouse monoclonal antibody specific for EGFR phosphorylated at Tyr1068 (Cell Signaling, 2236), phospho-MAPK using a mouse monoclonal antibody specific for p44/42 MAPK (ERK1/2) phosphorylated at Thr202/Tyr204 (Cell Signaling, 9106), and phospho-Akt using a rabbit monoclonal antibody specific for Akt phosphorylated at Ser473 (Cell Signaling, 9271). […]
(In general: A western blot detects proteins with antibodies after separation by electrophoresis.)

In series [2] the test system is phosphorylation of c-Met and EGFR. In words: Western blot of receptor phosphorylation in U87MG cells. Type of series: cell-based, human. To be noted: 200 nM, 20 min. How it is done:
as §1, §2

For the next series, the system named is NCI-H1975 cells. Put plainly: Cell proliferation, NCI-H1975 cells stimulated with HGF. It counts as cell-based. The conditions noted are these: NCI-H1975, antibodies 300 nM with and without erlotinib (2 μM). On the procedure:
NCI-H1975 (ATCC CRL-5908) is a non-small cell lung cancer (NSCLC) cell line which expresses constitutively active mutated EGFR L858R and EGFR T790M (Kobayashi et al 2005). These mutations are acquired secondary mutations known to confer resistance to EGFR tyrosine kinase inhibitor (TKI) therapies in NSCLC patients. The NCI-H1975 cell line also expresses c-Met. […] The same method was used as in the U87MG assay described above, except that the NCI-H1975 cells were stimulated with HGF. One day before the treatment, the medium used was changed from containing 10% FBS to containing no serum. Treatments were added at various concentrations (0.003-300 nM) in the presence of 80 ng/ml HGF and incubated for 3 days at 37° C.

Chain of HGF (P14210 32-728): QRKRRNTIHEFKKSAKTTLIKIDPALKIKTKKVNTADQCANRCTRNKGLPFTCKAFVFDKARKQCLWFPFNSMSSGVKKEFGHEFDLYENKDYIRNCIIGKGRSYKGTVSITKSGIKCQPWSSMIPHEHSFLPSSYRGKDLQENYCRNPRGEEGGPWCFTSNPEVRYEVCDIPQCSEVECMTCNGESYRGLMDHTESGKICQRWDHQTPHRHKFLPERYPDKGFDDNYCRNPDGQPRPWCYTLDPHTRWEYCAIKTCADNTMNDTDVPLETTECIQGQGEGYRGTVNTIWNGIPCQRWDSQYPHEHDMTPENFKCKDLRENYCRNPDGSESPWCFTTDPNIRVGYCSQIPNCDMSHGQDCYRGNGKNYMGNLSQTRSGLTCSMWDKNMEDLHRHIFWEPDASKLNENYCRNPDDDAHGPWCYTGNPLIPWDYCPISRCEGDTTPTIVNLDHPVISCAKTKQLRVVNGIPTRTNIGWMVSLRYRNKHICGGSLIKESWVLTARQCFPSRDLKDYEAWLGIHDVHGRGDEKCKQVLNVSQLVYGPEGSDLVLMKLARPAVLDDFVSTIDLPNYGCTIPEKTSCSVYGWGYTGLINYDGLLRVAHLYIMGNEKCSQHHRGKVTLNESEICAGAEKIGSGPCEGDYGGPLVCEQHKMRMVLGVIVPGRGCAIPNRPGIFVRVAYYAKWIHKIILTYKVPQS

In the case of “9D9m2a: anti-mouse CTLA4 antibody: 9D9 VH in mouse IgG2a backbone, heavy chain SEQ ID NO: 52, light chain SEQ ID NO: 50 [Fcab 9D9m2a, reference compound]”, in the series on LL2.ova, the “Mice showing hair loss” value was 0/8 and the Skin lesions was 0/8.
Regarding rilotumumab [reference compound], in the series with HGF, the “concentration of free HGF in the media” value was “significant decrease in the concentration of free HGF in the media”. Also, in series [1], the “block of phosphorylation of MAPK and Akt” value is “unable to block the phosphorylation of MAPK and Akt”. Also, the “block of phosphorylation of c-Met by HGF” value in series [2] is reported as “able to block the phosphorylation of c-Met by HGF”.
Take `C#Cc1cccc(Nc2ncnc3cc(OCCOC)c(OCCOC)cc23)c1` [erlotinib, reference compound]: the “reduction of cell proliferation induced by HGF” value with NCI-H1975 cells is recorded as “No effect”.
